This note sets out measurements from the supplement of paper PMC10567573.

B1: CDC25B (parent)
chain: FVDILESDLKDDDAVPPGMESLIS
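Further: lentivirally expressed fusions sorted by FACS into six bins by GFP to DsRed ratio, PSI derived from sequencing read proportions per bin multiplied by bin number.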

The variants in this series derive from B1. Description: protein stability index of a GFP-peptide fusion (GPS, HEK-293T) (PSI 1-6); higher = more stable. The following applies: c terminus: a fixed tail appended.
As for FVDILESDLKDDDAAPPGMESLIS, the protein stability index is 2.78.
In the case of FVDILESDLKDDDASPPGMESLIS, the protein stability index was found to be 3.32.
With FVDILESDLKDDDAWPPGMESLIS, the protein stability index amounted to 2.69.
For FVDILESDLKDDDANPPGMESLIS, the protein stability index was found to be 3.27.
FVDILESDLKDDDAIPPGMESLIS: the protein stability index turned out to be 3.
As for FVDILESDLKDDDAHPPGMESLIS, the protein stability index worked out at 3.04.
Consider FVDILESDLKDDDAMPPGMESLIS, for which the protein stability index is 3.02.
As to FVDILESDLKDDDAQPPGMESLIS, the protein stability index amounted to 2.87.
As for FVDILESDLKDDDADPPGMESLIS, the protein stability index amounted to 3.11.
Then FVDILESDLKDDDAGPPGMESLIS, with 3.19.
For FVDILESDLKDDDATPPGMESLIS, the protein stability index turned out to be 2.92.
In the case of FVDILESDLKDDDAFPPGMESLIS, the protein stability index worked out at 2.39.
As to FVDILESDLKDDDAKPPGMESLIS, the protein stability index was 2.96.
Regarding FVDILESDLKDDDAEPPGMESLIS, the protein stability index was 3.11.
As for FVDILESDLKDDDAYPPGMESLIS, the protein stability index is 3.1.
Turning to FVDILESDLKDDDALPPGMESLIS, the protein stability index stood at 2.78.
In the case of FVDILESDLKDDDARPPGMESLIS, the protein stability index came to 2.69.
As to FVDILESDLKDDDACPPGMESLIS, the protein stability index was determined as 2.88.
For the variant FVDILESDLDDDDAVPPGMESLIS, the protein stability index stood at 2.91.
On to FVDILESDLNDDDAVPPGMESLIS, for which the protein stability index amounted to 2.87.
As to FVDILESDLRDDDAVPPGMESLIS, the protein stability index was determined as 2.75.
With FVDILESDLMDDDAVPPGMESLIS, the protein stability index was 3.2.
Then FVDILESDLWDDDAVPPGMESLIS, with 2.43; and FVDILESDLHDDDAVPPGMESLIS, with 2.97.
With FVDILESDLFDDDAVPPGMESLIS, the protein stability index came out at 2.63.
Then FVDILESDLQDDDAVPPGMESLIS, with 2.97; and FVDILESDLGDDDAVPPGMESLIS, with 3.5; and FVDILESDLVDDDAVPPGMESLIS, with 3.
Take FVDILESDLPDDDAVPPGMESLIS: the protein stability index stood at 3.1.
On to FVDILESDLTDDDAVPPGMESLIS, for which the protein stability index was determined as 3.46.
As to FVDILESDLYDDDAVPPGMESLIS, the protein stability index was determined as 2.59.
Consider FVDILESDLIDDDAVPPGMESLIS, for which the protein stability index worked out at 2.72.
For FVDILESDLADDDAVPPGMESLIS, the protein stability index was 2.77.
For the variant FVDILESDLCDDDAVPPGMESLIS, the protein stability index came out at 3.11.
FVDILESDLSDDDAVPPGMESLIS: the protein stability index came out at 2.52.
Consider FVDILESDLEDDDAVPPGMESLIS, for which the protein stability index was 3.33.
For FVDILESDLLDDDAVPPGMESLIS, the protein stability index was 2.45.
Consider FVDILESDLKDDDVVPPGMESLIS, for which the protein stability index came out at 3.15.
With FVDILESDLKDDDTVPPGMESLIS the figure was 3.61.
With FVDILESDLKDDDYVPPGMESLIS, the protein stability index amounted to 2.49.
For FVDILESDLKDDDNVPPGMESLIS, the protein stability index was 3.29.
With FVDILESDLKDDDCVPPGMESLIS the figure was 2.86; with FVDILESDLKDDDPVPPGMESLIS, 3.15; with FVDILESDLKDDDFVPPGMESLIS, 2.49.
Take FVDILESDLKDDDLVPPGMESLIS: the protein stability index was found to be 2.8.
Turning to FVDILESDLKDDDEVPPGMESLIS, the protein stability index was found to be 3.05.
FVDILESDLKDDDDVPPGMESLIS: the protein stability index stood at 3.48.
With FVDILESDLKDDDGVPPGMESLIS the figure was 2.53; with FVDILESDLKDDDQVPPGMESLIS, 2.33.
With FVDILESDLKDDDRVPPGMESLIS, the protein stability index stood at 2.75.
Regarding FVDILESDLKDDDSVPPGMESLIS, the protein stability index was 3.24.
As to FVDILESDLKDDDIVPPGMESLIS, the protein stability index came out at 2.65.
Take FVDILESDLKDDDHVPPGMESLIS: the protein stability index is 2.75.
In the case of FVDILESDLKDDDWVPPGMESLIS, the protein stability index came out at 2.65.
With FVDILESDLKDDDKVPPGMESLIS, the protein stability index was determined as 2.96.
With FVDILESDLKDDDMVPPGMESLIS the figure was 3; with FVDILESDLKDDDAVPAGMESLIS, 2.95.
In the case of FVDILESDLKDDDAVPEGMESLIS, the protein stability index was found to be 3.6.
On to FVDILESDLKDDDAVPKGMESLIS, for which the protein stability index was found to be 2.45.
With FVDILESDLKDDDAVPGGMESLIS the figure was 3.25; with FVDILESDLKDDDAVPDGMESLIS, 3.2; with FVDILESDLKDDDAVPCGMESLIS, 2.58.
Regarding FVDILESDLKDDDAVPIGMESLIS, the protein stability index amounted to 2.45.
Take FVDILESDLKDDDAVPHGMESLIS: the protein stability index turned out to be 2.61.
FVDILESDLKDDDAVPFGMESLIS: the protein stability index stood at 2.21.
In the case of FVDILESDLKDDDAVPLGMESLIS, the protein stability index was found to be 2.43.
Then FVDILESDLKDDQAVPPGMESLIS, with 2.71; and FVDILESDLKDDPAVPPGMESLIS, with 2.83; and FVDILESDLKDDWAVPPGMESLIS, with 2.62.
In the case of FVDILESDLKDDLAVPPGMESLIS, the protein stability index worked out at 2.61.
For the variant FVDILESDLKDDNAVPPGMESLIS, the protein stability index came to 2.67.
Then FVDILESDLKDDFAVPPGMESLIS, with 2.38; and FVDILESDLKDDSAVPPGMESLIS, with 2.63.
FVDILESDLKDDAAVPPGMESLIS: the protein stability index came out at 3.04.
For the variant FVDILESDLKDDHAVPPGMESLIS, the protein stability index is 2.7.
For FVDILESDLKDDYAVPPGMESLIS, the protein stability index amounted to 2.11.
With FVDILESDLKDDIAVPPGMESLIS the figure was 2.08; with FVDILESDLKDDGAVPPGMESLIS, 2.61.
On to FVDILESDLKDDRAVPPGMESLIS, for which the protein stability index is 2.1.
On to FVDILESDLKDDVAVPPGMESLIS, for which the protein stability index was 2.39.
In the case of FVDILESDLKDDTAVPPGMESLIS, the protein stability index came out at 2.75.
As to FVDILESDLKDDKAVPPGMESLIS, the protein stability index is 2.96.
Take FVDILESDLKDDCAVPPGMESLIS: the protein stability index turned out to be 2.56.
Consider FVDILESDLKDDMAVPPGMESLIS, for which the protein stability index is 2.33.
Turning to FVDILESDLKDDEAVPPGMESLIS, the protein stability index amounted to 2.95.
As to FVDILESDLKADDAVPPGMESLIS, the protein stability index stood at 3.
With FVDILESDLKFDDAVPPGMESLIS, the protein stability index is 2.52.
With FVDILESDLKLDDAVPPGMESLIS, the protein stability index was found to be 2.25.
In the case of FVDILESDLKNDDAVPPGMESLIS, the protein stability index was 2.5.
With FVDILESDLKMDDAVPPGMESLIS, the protein stability index stood at 2.6.
With FVDILESDLKGDDAVPPGMESLIS the figure was 2.78.
Take FVDILESDLKEDDAVPPGMESLIS: the protein stability index was 3.17.
With FVDILESDLKIDDAVPPGMESLIS the figure was 2.6; with FVDILESDLKPDDAVPPGMESLIS, 2.68.
